B1: Coiled-coil domain-containing protein 120 (Homo sapiens), Q96HB5-4 (parent)
chain: MRREPRYQGQVGPDIHTDSERTLSSHQPRPLDSTKMEVKGQLISSPTFNAPAALFGEAAPQVKSERLRGLLDRQRTLQEALSLKLQELRKVCLQEAELTGQLPPECPLEPGERPQLVRRRPPTARAYPPPHPNQAHHSLCPAEELALEALEREVSVQQQIAAAARRLALAPDLSTEQRRRRRQVQADALRRLHELEEQLRDVRARLGLPVLPLPQPLPLSTGSVITTQGVCLGMRLAQLSQEDVVLHSESSSLSESGASHDNEEPHGCFSLAERPSPPKAWDQLRAVSGGSPERRTPWKPPPSDLYGDLKSRRNSVASPTSPTRSLPRSASSFEGRSVPATPVLTRGAGPQLCKPEGLHSRQWSGSQDSQMGFPRADPASDRASLFVARTRRSNSSEALLVDRAAGGGAGSPPAPLAPSASGPPVCKSSEVLYERPQPTPAFSSRTAGPPDPPRAARPSSAAPASRGAPRLPPVCGDFLLDYSLDRGLPRSGGGTGWGELPPAAEVPGPLSRRDGLLTMLPGPPPVYAADSNSPLLRTKDPHTRATRTKPCGLPPEAAEGPEVHPNPLLWMPPPTRIPSAGERSGHKNLALEGLRDWYIRNSGLAAGPQRRPVLPSVGPPHPPFLHARCYEVGQALYGAPSQAPLPHSRSFTAPPVSGRYYADFLYPPELSARLSDLTLEGEQSSSSDTQTPGTLV
B2: Genetic suppressor element 1 (Homo sapiens), Q14687 (parent)
chain: MKGMSHEPKSPSLGMLSTATRTTATVNPLTPSPLNGALVPSGSPATSSALSAQAAPSSSFAAALRKLAKQAEEPRGSSLSSESSPVSSPATNHSSPASTPKRVPMGPIIVPPGGHSVPSTPPVVTIAPTKTVNGVWRSESRQDAGSRSSSGGRERLIVEPPLPQEKAGGPAIPSHLLSTPYPFGLSPSSVVQDSRFPPLNLQRPVHHVVPPSTVTEDYLRSFRPYHTTDDLRMSSLPPLGLDPATAAAYYHPSYLAPHPFPHPAFRMDDSYCLSALRSPFYPIPTPGSLPPLHPSAMHLHLSGVRYPPELSHSSLAALHSERMSGLSAERLQMDEELRREREREREREREREADREREKEREREREKEREQEKEREREKERERELERQREQRAREKELLAAKALEPSFLPVAELHGLRGHATEERGKPSEQLTPTRAEKLKDAGLQAPKPVQHPLHPVPTPHHTVPSLISNHGIFSLPSSSAATALLIQRTNEEEKWLARQRRLRQEKEDRQSQVSEFRQQVLEQHLDMGRPPVPAEAEHRPESTTRPGPNRHEPGGRDPPQHFGGPPPLISPKPQLHAAPTALWNPVSLMDNTLETRRAESHSLHSHPAAFEPSRQAAVPLVKVERVFCPEKAEEGPRKREPAPLDKYQPPPPPPREGGSLEHQPFLPGPGPFLAELEKSTQTILGQQRASLPQAATFGELSGPLKPGSPYRPPVPRAPDPAYIYDEFLQQRRRLVSKLDLEERRRREAQEKGYYYDLDDSYDESDEEEVRAHLRCVAEQPPLKLDTSSEKLEFLQLFGLTTQQQKEELVAQKRRKRRRMLRERSPSPPTIQSKRQTPSPRLALSTRYSPDEMNNSPNFEEKKKFLTIFNLTHISAEKRKDKERLVEMLRAMKQKALSAAVADSLTNSPRDSPAVSLSEPATQQASLDVEKPVGVAASLSDIPKAAEPGKLEQVRPQELSRVQELAPASGEKARLSEAPGGKKSLSMLHYIRGAAPKDIPVPLSHSTNGKSKPWEPFVAEEFAHQFHESVLQSTQKALQKHKGSVAVLSAEQNHKVDTSVHYNIPELQSSSRAPPPQHNGQQEPPTARKGPPTQELDRDSEEEEEEDDEDGEDEEEVPKRKWQGIEAVFEAYQEHIEEQNLERQVLQTQCRRLEARHYSLSLTAEQLSHSVAELRSQKQKMVSERERLQAELDHLRKCLALPAMHWPRGYLKGYPR
partner: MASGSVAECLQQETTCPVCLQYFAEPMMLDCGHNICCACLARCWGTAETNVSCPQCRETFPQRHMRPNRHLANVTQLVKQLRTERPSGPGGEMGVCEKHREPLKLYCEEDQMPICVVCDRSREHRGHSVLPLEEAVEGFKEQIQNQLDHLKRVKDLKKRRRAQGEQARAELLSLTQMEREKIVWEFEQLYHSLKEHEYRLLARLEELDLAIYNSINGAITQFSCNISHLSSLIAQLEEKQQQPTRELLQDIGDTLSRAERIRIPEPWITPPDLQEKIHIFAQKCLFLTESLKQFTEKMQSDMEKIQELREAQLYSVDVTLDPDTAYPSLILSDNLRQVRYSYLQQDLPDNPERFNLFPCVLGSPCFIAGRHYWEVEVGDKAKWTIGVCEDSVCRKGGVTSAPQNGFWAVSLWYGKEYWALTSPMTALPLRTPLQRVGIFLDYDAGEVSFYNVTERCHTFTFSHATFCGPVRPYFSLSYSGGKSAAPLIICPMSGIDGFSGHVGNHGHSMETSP
B3: Casein kinase II subunit alpha (Homo sapiens), P68400 (parent)
chain: MSGPVPSRARVYTDVNTHRPREYWDYESHVVEWGNQDDYQLVRKLGRGKYSEVFEAINITNNEKVVVKILKPVKKKKIKREIKILENLRGGPNIITLADIVKDPVSRTPALVFEHVNNTDFKQLYQTLTDYDIRFYMYEILKALDYCHSMGIMHRDVKPHNVMIDHEHRKLRLIDWGLAEFYHPGQEYNVRVASRYFKGPELLVDYQMYDYSLDMWSLGCMLASMIFRKEPFFHGHDNYDQLVRIAKVLGTEDLYDYIDKYNIELDPRFNDILGRHSRKRWERFVHSENQHLVSPEALDFLDKLLRYDHQSRLTAREAMEHPYFYTVVKDQARMGSSSMPGGSTPVSSANMMSGISSVPTPSPLGPLAGSPVIAAANPLGMPVPAAAGAQQ
partner: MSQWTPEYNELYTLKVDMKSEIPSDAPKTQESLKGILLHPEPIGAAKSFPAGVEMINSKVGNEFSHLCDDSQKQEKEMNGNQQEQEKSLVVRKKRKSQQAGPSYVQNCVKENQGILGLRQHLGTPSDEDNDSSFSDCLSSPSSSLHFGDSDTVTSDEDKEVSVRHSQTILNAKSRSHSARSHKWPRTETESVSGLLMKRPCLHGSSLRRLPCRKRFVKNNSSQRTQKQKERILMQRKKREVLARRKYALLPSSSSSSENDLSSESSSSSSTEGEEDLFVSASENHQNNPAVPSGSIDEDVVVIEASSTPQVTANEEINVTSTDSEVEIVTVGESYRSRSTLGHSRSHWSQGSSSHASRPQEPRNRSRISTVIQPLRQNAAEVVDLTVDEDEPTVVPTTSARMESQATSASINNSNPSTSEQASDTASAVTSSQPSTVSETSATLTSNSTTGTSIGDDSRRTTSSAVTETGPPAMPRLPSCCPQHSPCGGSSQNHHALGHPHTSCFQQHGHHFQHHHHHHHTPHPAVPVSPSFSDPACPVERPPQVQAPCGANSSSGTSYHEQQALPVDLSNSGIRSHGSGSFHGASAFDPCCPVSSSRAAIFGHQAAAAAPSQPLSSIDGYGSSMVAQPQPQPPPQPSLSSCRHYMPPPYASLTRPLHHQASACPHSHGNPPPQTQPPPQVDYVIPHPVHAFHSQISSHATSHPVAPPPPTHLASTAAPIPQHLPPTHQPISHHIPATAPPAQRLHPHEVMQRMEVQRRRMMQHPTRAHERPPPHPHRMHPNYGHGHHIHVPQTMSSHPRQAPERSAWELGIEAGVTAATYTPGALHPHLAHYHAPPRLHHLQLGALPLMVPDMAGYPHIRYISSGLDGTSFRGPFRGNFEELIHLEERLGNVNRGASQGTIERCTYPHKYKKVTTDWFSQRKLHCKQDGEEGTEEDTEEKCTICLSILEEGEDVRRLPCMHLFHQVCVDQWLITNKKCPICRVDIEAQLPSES

Variants of: B1
Settings: with cyh2_human CYTH2, Q99418
Chain of cyh2_human CYTH2, Q99418 (Q99418 whole entry): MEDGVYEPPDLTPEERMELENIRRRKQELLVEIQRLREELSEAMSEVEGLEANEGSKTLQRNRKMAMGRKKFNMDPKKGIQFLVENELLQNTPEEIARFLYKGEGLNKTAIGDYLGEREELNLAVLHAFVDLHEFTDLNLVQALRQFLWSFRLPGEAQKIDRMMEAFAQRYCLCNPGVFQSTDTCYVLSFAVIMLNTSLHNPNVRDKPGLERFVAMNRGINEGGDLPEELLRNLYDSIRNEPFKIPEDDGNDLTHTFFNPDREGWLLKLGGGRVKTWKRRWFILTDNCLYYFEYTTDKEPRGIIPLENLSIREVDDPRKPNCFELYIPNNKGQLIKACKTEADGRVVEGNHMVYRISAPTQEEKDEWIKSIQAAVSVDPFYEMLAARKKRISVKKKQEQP

Variant | effect of a mutation on the interaction
R346W | with no effect

Variants of: B1
Settings: with mdfi_human MDFI

Variant | effect of a mutation on the interaction
R346W | with no effect

Variants of: B1
Settings: with k1h1_human KRT31, Q15323
Chain of k1h1_human KRT31, Q15323 (Q15323 whole entry): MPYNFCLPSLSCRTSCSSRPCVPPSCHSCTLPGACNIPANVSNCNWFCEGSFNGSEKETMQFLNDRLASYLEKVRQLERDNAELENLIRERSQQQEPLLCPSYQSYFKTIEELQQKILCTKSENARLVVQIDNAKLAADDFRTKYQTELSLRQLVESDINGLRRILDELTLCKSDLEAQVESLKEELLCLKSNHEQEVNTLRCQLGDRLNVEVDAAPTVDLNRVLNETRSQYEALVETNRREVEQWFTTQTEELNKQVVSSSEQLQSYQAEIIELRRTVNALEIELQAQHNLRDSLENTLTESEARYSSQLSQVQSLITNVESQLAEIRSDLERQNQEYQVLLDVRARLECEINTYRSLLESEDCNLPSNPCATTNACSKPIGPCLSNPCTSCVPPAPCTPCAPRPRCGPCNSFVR

Variant | effect of a mutation on the interaction
R346W | with no effect

Variants of: B1
Settings: with KRT15, P19012
Chain of KRT15, P19012 (P19012 whole entry): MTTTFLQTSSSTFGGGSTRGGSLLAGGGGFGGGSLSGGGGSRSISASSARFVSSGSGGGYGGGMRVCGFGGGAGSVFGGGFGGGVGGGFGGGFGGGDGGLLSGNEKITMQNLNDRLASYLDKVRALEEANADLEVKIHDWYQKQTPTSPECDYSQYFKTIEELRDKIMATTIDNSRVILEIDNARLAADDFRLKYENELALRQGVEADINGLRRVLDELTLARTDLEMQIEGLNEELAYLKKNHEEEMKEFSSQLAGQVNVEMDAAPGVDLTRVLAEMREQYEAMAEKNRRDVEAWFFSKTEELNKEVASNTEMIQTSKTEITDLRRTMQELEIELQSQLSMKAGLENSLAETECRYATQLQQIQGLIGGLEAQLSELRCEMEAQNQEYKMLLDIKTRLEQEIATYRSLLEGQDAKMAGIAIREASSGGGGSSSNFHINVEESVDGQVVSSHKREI

Variant | effect of a mutation on the interaction
R346W | with no effect

Variants of: B2
Settings: with tri27_human TRIM27, P14373

Variant | effect of a mutation on the interaction
R503Q | with no effect

Variants of: B2
Settings: with tri27_human TRIM27, P14373
Remark: another data set of the same source

Variant | effect of a mutation on the interaction
E368K | with no effect

Variants of: B3
Settings: with rn111_human RNF111, Q6ZNA4

Variant | effect of a mutation on the interaction
K198R | with no effect
